In patent US20240182556A1 (OPSIDIO, published 2024):

T1: exon 6 peptide (ASSLRNDSSSSNRKAKNPPGDS), coated on ELISA plate (not fully specified)
T1 construct: No biotin is mentioned for the ELISA coat; also called a peptide of SCF248
T1 peptide: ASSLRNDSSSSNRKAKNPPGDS


Columns and labels:
[1] = biological target: human SCF248 (stem cell factor 248 isoform) expressed on mouse SI/SI4 cells (human), P21583; assay: cell-based or functional assay
[2] = biological target: T1, exon 6 peptide …; assay: direct ELISA on coated peptide, IgG4, read at 450 nm
Description: A direct enzyme-linked immunosorbent assay (ELISA) was performed to evaluate binding of the clones of Example 2 (referred to in all additional examples as “mutants”) to the Exon 6 peptide. The mutants were expressed as full length IgG4 antibodies.
The plate was incubated at 4° C. overnight. […] Both plates were washed with wash buffer twice. Then, the plates were blocked with blocking buffer for 1 hour at 37° C. The plates were then washed with wash buffer twice. […] The plate was covered and incubated for 1 hour at 37° C. The plates were then washed with wash buffer three times. The secondary antibody was added to the plates. The plates were covered and incubated for 1 hour at 37° C. The plates were then washed with wash buffer three times. 100 μL of detection substrate was added to each well of the plates. The plates were covered and incubated for 10-20 minutes at room temperature. Subsequently, 100 μL of stop solution was added to the plates. Each plate was read at an absorbance of 450 nm.
Reagents: Coating buffer contained 1.5M NaCl, 0.5M […], and 1.0N NaOH. Wash buffer contained 0.05% Tween-20 in PBS. Blocking buffer contained 2.0% normal goat serum in wash buffer. The dilution buffer was wash buffer and 2% FCS. The secondary antibody was a goat anti-human IgG HRP conjugate, purchased from Millipore (Catalogue Number: AP309P). The secondary antibody was diluted 1:1000. The detection substrate was prepared by dissolving 4 O-phenylenediamine dihydrochloride (OPD) tablets dissolved in 12 mL sterile distilled water. 5 μL of hydrogen peroxide (30% v/v) was added to the detection substrate immediately before adding substrate to the wells. The stop solution contained 0.5 M H₂SO₄.

Chain of human SCF248 (stem cell factor 248 isoform) expressed on mouse SI/SI4 cells (human), P21583 (P21583 26-273): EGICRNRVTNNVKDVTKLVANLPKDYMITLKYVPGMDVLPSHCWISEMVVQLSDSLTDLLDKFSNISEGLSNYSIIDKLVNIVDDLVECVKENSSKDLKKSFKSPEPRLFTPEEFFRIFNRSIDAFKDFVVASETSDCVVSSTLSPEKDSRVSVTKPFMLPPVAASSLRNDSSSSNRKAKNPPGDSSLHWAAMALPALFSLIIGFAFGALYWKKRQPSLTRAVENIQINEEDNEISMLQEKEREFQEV

Row | CCL2 Expression as Percentage of Positive Control [1] [%] | TGFβ Expression as Percentage of Positive Control [1] [%] | absorbance at 0.1 ng/mL antibody [2] [absorbance] | absorbance at 0.5 ng/mL antibody [2] [absorbance] | absorbance at 1 ng/mL antibody [2] [absorbance] | absorbance at 5 ng/mL antibody [2] [absorbance] | absorbance at 100 ng/mL antibody [2] [absorbance] | absorbance at 1000 ng/mL antibody [2] [absorbance] | Binder
1 | 37 | 65.5 |  |  |  |  |  |  | 5H10 VK3/VH1 humanized antibody of Table 1 (antibody, V domains shown) VH: QVQLVQSGAELKKPGSSVKISCKSSGYAFSSYWMNWVKQRPGQGLEWIGQIYPGDGDTHYNGKFKGKATLTADKSTSTAYMELSSLTSEDSAVYFCSSSNWVGSYWGQGTLVTVSS VL: DVVMTQSPLSLPVTLGQPASISCKSSQSLLESDGKTYLNWLQQRPGQSPRRLIYLVSRLDSGVPDRFSGSGSGTDFTLKISRVEAEDVGVYYCWQGTHLPQTFGGGTKVEIK
2 | 22.9 | 47.9 | 0.122 | 0.172 | 0.564 | 1.41 | 2.71 | 3.12 | A64P mutant expressed as full length IgG4 antibody (antibody, V domains shown, Full length IgG4) VH: QVQLVQSGAELKKPGSSVKISCKSSGYAFSSNWMNWVKQRPGQGLEWIGQIYPEDGDTHYNGKFKGKATLTADKSTSTAYMELSSLTSEDSAVYFCSSSNWVGSYWGQGTLVTVSS VL: DVVMTQSPLSLPVTLGQPASISCKSSQSLLEEDGNTYLNWLQQRPGQSPRRLIYLVNRLDDGVPDRFSGSGSGTDFTLKISRVEAEDVGVYYCWQGTDLPQTFGGGTKVEIK
3 | 27.4 | 46.9 | 0.092 | 0.305 | 1.02 | 1.57 | 2.6 | 2.94 | A104P mutant expressed as full length IgG4 antibody (antibody, V domains shown, Full length IgG4) VH: QVQLVQSGAELKKPGSSVKISCKSSGYAFSSQWMNWVKQRPGQGLEWIGQIYPEDGDTHYNGKFKGKATLTADKSTSTAYMELSSLTSEDSAVYFCSSSNWVGSYWGQGTLVTVSS VL: DVVMTQSPLSLPVTLGQPASISCKSSQSLLEEDGNTYLNWLQQRPGQSPRRLIYLVDRLDSGVPDRFSGSGSGTDFTLKISRVEAEDVGVYYCWQGTDLPQTFGGGTKVEIK
4 | 31.7 | 43.9 | 0.0855 | 0.174 | 0.527 | 1.13 | 1.83 | 2.48 | B104P mutant expressed as full length IgG4 antibody (antibody, V domains shown, Full length IgG4) VH: QVQLVQSGAELKKPGSSVKISCKSSGYAFSSQWMNWVKQRPGQGLEWIGQIYPDDGDTHYNDKFKGKATLTADKSTSTAYMELSSLTSEDSAVYFCSSSNWVGSYWGQGTLVTVSS VL: DVVMTQSPLSLPVTLGQPASISCKSSQSLLEADGNTYLNWLQQRPGQSPRRLIYLVDRLDSGVPDRFSGSGSGTDFTLKISRVEAEDVGVYYCWQGTDLPQTFGGGTKVEIK
5 | 35.6 | 65.8 | 0.131 | 0.193 | 0.56 | 1.48 | 2.67 | 3.14 | A84P mutant expressed as full length IgG4 antibody (antibody, V domains shown, Full length IgG4) VH: QVQLVQSGAELKKPGSSVKISCKSSGYAFSSQWMNWVKQRPGQGLEWIGQIYPEDGDTHMNGKFKGKATLTADKSTSTAYMELSSLTSEDSAVYFCSSSNWVGSYWGQGTLVTVSS VL: DVVMTQSPLSLPVTLGQPASISCKSSQSLLEEDGNTYLNWLQQRPGQSPRRLIYLVDRLDIGVPDRFSGSGSGTDFTLKISRVEAEDVGVYYCWQGTDLPQTFGGGTKVEIK
